{
  "source": "the Immune Epitope Database (IEDB)",
  "key": {"[1]": {"biological_target": "HLA-A*26:01", "experiment": "IEDB peptide-MHC binding, purified MHC/competitive/radioactivity; filed as Kd, often an IC50 or EC50 that approximates it; ≥ and ≤ were set here for values at or beyond the usual limits of such assays"}, "[2]": {"biological_target": "HLA-A*68:02", "experiment": "IEDB peptide-MHC binding, purified MHC/competitive/radioactivity; filed as Kd, often an IC50 or EC50 that approximates it; ≥ and ≤ were set here for values at or beyond the usual limits of such assays"}, "[3]": {"biological_target": "HLA-A*26:01", "experiment": "IEDB peptide-MHC binding, purified MHC/direct/fluorescence; filed as Kd, often an IC50 or EC50 that approximates it; ≥ and ≤ were set here for values at or beyond the usual limits of such assays", "details": "source organism: West Nile virus"}, "[4]": {"biological_target": "HLA-B*46:01", "experiment": "IEDB peptide-MHC binding, purified MHC/competitive/fluorescence; filed as Kd, often an IC50 or EC50 that approximates it; ≥ and ≤ were set here for values at or beyond the usual limits of such assays", "details": "source organism: Vibrio vulnificus CMCP6"}, "[5]": {"biological_target": "HLA-B*39:01", "experiment": "IEDB peptide-MHC binding, purified MHC/competitive/fluorescence; filed as Kd, often an IC50 or EC50 that approximates it; ≥ and ≤ were set here for values at or beyond the usual limits of such assays", "details": "source organism: Bacillus anthracis str. A0488"}, "[6]": {"biological_target": "HLA-A*02:01", "experiment": "IEDB peptide-MHC binding, purified MHC/competitive/radioactivity; filed as Kd, often an IC50 or EC50 that approximates it; ≥ and ≤ were set here for values at or beyond the usual limits of such assays"}, "[7]": {"biological_target": "HLA-A*02:02", "experiment": "IEDB peptide-MHC binding, purified MHC/competitive/radioactivity; filed as Kd, often an IC50 or EC50 that approximates it; ≥ and ≤ were set here for values at or beyond the usual limits of such assays", "details": "source organism: HIV-1 M:B_ARV2/SF2"}, "[8]": {"biological_target": "HLA-A*02:03", "experiment": "IEDB peptide-MHC binding, purified MHC/competitive/radioactivity; filed as Kd, often an IC50 or EC50 that approximates it; ≥ and ≤ were set here for values at or beyond the usual limits of such assays", "details": "source organism: HIV-1 M:B_ARV2/SF2"}, "[9]": {"biological_target": "HLA-A*02:06", "experiment": "IEDB peptide-MHC binding, purified MHC/competitive/radioactivity; filed as Kd, often an IC50 or EC50 that approximates it; ≥ and ≤ were set here for values at or beyond the usual limits of such assays", "details": "source organism: HIV-1 M:B_ARV2/SF2"}, "[10]": {"biological_target": "HLA-B*44:02", "experiment": "IEDB peptide-MHC binding, purified MHC/competitive/radioactivity; filed as Kd, often an IC50 or EC50 that approximates it; ≥ and ≤ were set here for values at or beyond the usual limits of such assays"}, "[11]": {"biological_target": "HLA-B*44:03", "experiment": "IEDB peptide-MHC binding, purified MHC/competitive/radioactivity; filed as Kd, often an IC50 or EC50 that approximates it; ≥ and ≤ were set here for values at or beyond the usual limits of such assays"}, "[12]": {"biological_target": "HLA-A*01:01", "experiment": "IEDB peptide-MHC binding, purified MHC/competitive/radioactivity; filed as Kd, often an IC50 or EC50 that approximates it; ≥ and ≤ were set here for values at or beyond the usual limits of such assays"}, "[13]": {"biological_target": "HLA-A*29:02", "experiment": "IEDB peptide-MHC binding, purified MHC/competitive/radioactivity; filed as Kd, often an IC50 or EC50 that approximates it; ≥ and ≤ were set here for values at or beyond the usual limits of such assays"}, "[14]": {"biological_target": "HLA-A*30:01", "experiment": "IEDB peptide-MHC binding, purified MHC/competitive/radioactivity; filed as Kd, often an IC50 or EC50 that approximates it; ≥ and ≤ were set here for values at or beyond the usual limits of such assays"}, "[15]": {"biological_target": "HLA-A*30:02", "experiment": "IEDB peptide-MHC binding, purified MHC/competitive/radioactivity; filed as Kd, often an IC50 or EC50 that approximates it; ≥ and ≤ were set here for values at or beyond the usual limits of such assays"}, "[16]": {"biological_target": "HLA-A*32:01", "experiment": "IEDB peptide-MHC binding, purified MHC/competitive/radioactivity; filed as Kd, often an IC50 or EC50 that approximates it; ≥ and ≤ were set here for values at or beyond the usual limits of such assays"}, "[17]": {"biological_target": "HLA-B*40:01", "experiment": "IEDB peptide-MHC binding, purified MHC/competitive/radioactivity; filed as Kd, often an IC50 or EC50 that approximates it; ≥ and ≤ were set here for values at or beyond the usual limits of such assays", "details": "source organism: Dengue virus 1 Brazil/97-11/1997"}, "[18]": {"biological_target": "HLA-B*15:01", "experiment": "IEDB peptide-MHC binding, purified MHC/competitive/fluorescence; filed as Kd, often an IC50 or EC50 that approximates it; ≥ and ≤ were set here for values at or beyond the usual limits of such assays", "details": "source organism: Human immunodeficiency virus 1"}, "[19]": {"details": "source organism: Dengue virus 1 Brazil/97-11/1997"}, "[20]": {"details": "source organism: HIV-1 M:B_ARV2/SF2"}, "[21]": {"details": "source organism: Dengue virus 2 Jamaica/1409/1983"}, "[22]": {"details": "source organism: Mammarenavirus brazilense"}, "[23]": {"details": "source organism: Vaccinia virus WR"}, "[24]": {"details": "source organism: Mammarenavirus guanaritoense"}},
  "data": [
    {"sequence": "ESITLATGPL", "values": [
      {"measurement": "Kd", "setting": "[1]; [19]", "result": 1990, "unit": "nM"},
      {"measurement": "Kd", "setting": "[2]; [19]", "result": 101, "unit": "nM"}
    ]},
    {"sequence": "ETPQGLAKI", "values": [
      {"measurement": "Kd", "setting": "[3]", "result": 5560, "unit": "nM"}
    ]},
    {"sequence": "ETQHGTVLV", "values": [
      {"measurement": "Kd", "setting": "[1]; [19]", "result": 4910, "unit": "nM"},
      {"measurement": "Kd", "setting": "[2]; [19]", "result": 2.52, "unit": "nM"}
    ]},
    {"sequence": "EVAETQHGTV", "values": [
      {"measurement": "Kd", "setting": "[2]; [19]", "result": 1.53, "unit": "nM"}
    ]},
    {"sequence": "FAIGDWEPY", "values": [
      {"measurement": "Kd", "setting": "[4]", "result": 74.1, "unit": "nM"}
    ]},
    {"sequence": "FKWGKKIIL", "values": [
      {"measurement": "Kd", "setting": "[5]", "result": 12.6, "unit": "nM"}
    ]},
    {"sequence": "FLGKIWPSYK", "values": [
      {"measurement": "Kd", "setting": "[6]; [20]", "result": 89.9, "unit": "nM"},
      {"measurement": "Kd", "setting": "[7]", "result": 449, "unit": "nM"},
      {"measurement": "Kd", "setting": "[8]", "result": 448, "unit": "nM"},
      {"measurement": "Kd", "setting": "[9]", "result": 3010, "unit": "nM"},
      {"measurement": "Kd", "setting": "[2]; [20]", "result": "≥ 41200", "unit": "nM"}
    ]},
    {"sequence": "GEKALKLSWF", "values": [
      {"measurement": "Kd", "setting": "[10]; [19]", "result": 373, "unit": "nM"},
      {"measurement": "Kd", "setting": "[11]; [19]", "result": 135, "unit": "nM"}
    ]},
    {"sequence": "GERKKLKPRW", "values": [
      {"measurement": "Kd", "setting": "[10]; [21]", "result": 839, "unit": "nM"},
      {"measurement": "Kd", "setting": "[11]; [21]", "result": 1450, "unit": "nM"}
    ]},
    {"sequence": "GLDLQPCIDL", "values": [
      {"measurement": "Kd", "setting": "[2]; source organism: Homo sapiens", "result": "≥ 60000", "unit": "nM"}
    ]},
    {"sequence": "GLRDCTMLV", "values": [
      {"measurement": "Kd", "setting": "[6]; source organism: hepatitis C virus genotype 1a", "result": 421, "unit": "nM"}
    ]},
    {"sequence": "GSLLHGLWPY", "values": [
      {"measurement": "Kd", "setting": "[12]; [22]", "result": 496, "unit": "nM"},
      {"measurement": "Kd", "setting": "[1]; [22]", "result": "≥ 27300", "unit": "nM"},
      {"measurement": "Kd", "setting": "[13]; [22]", "result": 401, "unit": "nM"},
      {"measurement": "Kd", "setting": "[14]; [22]", "result": 102, "unit": "nM"},
      {"measurement": "Kd", "setting": "[15]; [22]", "result": 40.4, "unit": "nM"},
      {"measurement": "Kd", "setting": "[16]; [22]", "result": 1110, "unit": "nM"}
    ]},
    {"sequence": "HIIIVALTI", "values": [
      {"measurement": "Kd", "setting": "[16]; [23]", "result": 78.8, "unit": "nM"}
    ]},
    {"sequence": "IETLMLLAL", "values": [
      {"measurement": "Kd", "setting": "[17]", "result": 10.7, "unit": "nM"},
      {"measurement": "Kd", "setting": "[10]; [19]", "result": 1340, "unit": "nM"}
    ]},
    {"sequence": "IILVIIVVI", "values": [
      {"measurement": "Kd", "setting": "[16]; [23]", "result": 415, "unit": "nM"}
    ]},
    {"sequence": "ILGLNKIVRMY", "values": [
      {"measurement": "Kd", "setting": "[18]", "result": "≥ 20000", "unit": "nM"}
    ]},
    {"sequence": "ILNFVAHVY", "values": [
      {"measurement": "Kd", "setting": "[12]; [24]", "result": 7940, "unit": "nM"},
      {"measurement": "Kd", "setting": "[1]; [24]", "result": 12000, "unit": "nM"},
      {"measurement": "Kd", "setting": "[13]; [24]", "result": 1.24, "unit": "nM"},
      {"measurement": "Kd", "setting": "[14]; [24]", "result": 3140, "unit": "nM"},
      {"measurement": "Kd", "setting": "[15]; [24]", "result": 0.522, "unit": "nM"},
      {"measurement": "Kd", "setting": "[16]; [24]", "result": 939, "unit": "nM"}
    ]},
    {"sequence": "ITHFCSFNI", "values": [
      {"measurement": "Kd", "setting": "[16]; [23]", "result": "≥ 20900", "unit": "nM"}
    ]},
    {"sequence": "ITIAVASGL", "values": [
      {"measurement": "Kd", "setting": "[2]; source organism: Dengue virus 4 Dominica/814669/1981", "result": 31.1, "unit": "nM"}
    ]}
  ]
}
